From patent US20240400693A1 (Chugai, published 2024)

Assays:
[1] = target: HLA-DQ2.5 on IHW09023 cells loaded with 33mer gliadin peptide (human; wheat); assay: cell-based or functional assay
[2] = target: HLA-DQ2.5 on IHW09023 cells loaded with omega1/2 gliadin peptide (human; wheat); assay: cell-based or functional assay
[3] = target: HLA-DQ2.5 on IHW09023 cells loaded with BC hordein peptide (human; barley); assay: cell-based or functional assay
[4] = target: HLA-DQ2.5 on IHW09023 cells loaded with gamma 1 gliadin peptide (human; wheat); assay: cell-based or functional assay
[5] = target: HLA-DQ2.5 on IHW09023 cells loaded with gamma 2 gliadin peptide (human; wheat); assay: cell-based or functional assay
[6] = target: HLA-DQ2.5 on IHW09023 cells loaded with gamma 3 gliadin peptide (human; wheat); assay: cell-based or functional assay
[7] = target: HLA-DQ2.5 on IHW09023 cells loaded with gamma 4a gliadin peptide (human; wheat); assay: cell-based or functional assay
[8] = target: HLA-DQ2.5 on IHW09023 cells loaded with gamma 4d gliadin peptide (human; wheat); assay: cell-based or functional assay
[9] = target: T1, HLA-DQ5.1 on Ba/F3 cells (human, limits assumed); assay: FACS, Ba/F3 cells; raw MFI
T1 construct: whole, on cells; also called Ba/F3-HLA-DQ5.1
T1 MHC II alpha: not shown
T1 MHC II beta: not shown

[10] = target: T2, HLA-DQ6.3 on Ba/F3 cells (human, UniProt P01920 33-230, limits assumed); assay: FACS, Ba/F3 cells; raw MFI
T2 construct: whole, on cells; also called Ba/F3-HLA-DQ6.3
T2 MHC II alpha: not shown
T2 MHC II beta: not shown

[11] = target: T3, HLA-DR on Ba/F3 cells (human, UniProt P01903 26-216; P79483 30-227, limits assumed); assay: FACS, Ba/F3 cells; raw MFI
T3 construct: whole, on cells; also called Ba/F3-HLA-DR
T3 MHC II alpha: not shown
T3 MHC II beta: not shown

[12] = target: T4, HLA-DP on Ba/F3 cells (human, UniProt P20036 29-222; P04440 30-225, limits assumed); assay: FACS, Ba/F3 cells; raw MFI
T4 construct: whole, on cells; also called Ba/F3-HLA-DP
T4 sequence (P20036 29-222 limits assumed, chain 1 of 4, other chains not shown): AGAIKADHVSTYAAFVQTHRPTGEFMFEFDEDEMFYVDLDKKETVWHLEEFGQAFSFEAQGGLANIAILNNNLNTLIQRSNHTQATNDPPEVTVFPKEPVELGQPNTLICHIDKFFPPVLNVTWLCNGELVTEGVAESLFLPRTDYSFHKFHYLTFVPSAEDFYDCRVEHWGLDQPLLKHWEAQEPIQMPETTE
T4 sequence (P04440 30-225 limits assumed, chain 2 of 4, other chains not shown): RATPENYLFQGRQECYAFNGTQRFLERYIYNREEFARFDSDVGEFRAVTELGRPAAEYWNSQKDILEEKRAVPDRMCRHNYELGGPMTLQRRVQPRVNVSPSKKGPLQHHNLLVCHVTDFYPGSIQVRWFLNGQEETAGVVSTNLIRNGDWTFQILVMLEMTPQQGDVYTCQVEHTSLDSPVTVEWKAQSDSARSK

[13] = target: T5, HLA-DQ2.5 on Ba/F3 cells (human, UniProt P01909 24-216, limits assumed); assay: FACS, Ba/F3 cells; %MFI: IC17dK 0, DQN0139bb 100
T5 construct: whole, on cells; MHC class II without fused peptide; also called Ba/F3-HLA-DQ2.5

[14] = target: T6, HLA-DQ2.2 on Ba/F3 cells (human, UniProt P01909 24-216, limits assumed); assay: FACS, Ba/F3 cells; %MFI: IC17dK 0, DQN0139bb 100
T6 construct: whole, on cells; also called Ba/F3-HLA-DQ2.2
T6 MHC II alpha: not shown
T6 MHC II beta: not shown

[15] = target: T7, HLA-DQ7.5 on Ba/F3 cells (human, UniProt P01909 24-216; P01920 33-230, limits assumed); assay: FACS, Ba/F3 cells; %MFI: IC17dK 0, DQN0139bb 100
T7 construct: whole, on cells; also called Ba/F3-HLA-DQ7.5

[16] = target: T8, HLA-DQ8 on Ba/F3 cells (human, UniProt P01909 24-216; P01920 33-230, limits assumed); assay: FACS, Ba/F3 cells; %MFI: IC17dK 0, DQN0139bb 100
T8 construct: whole, on cells; also called Ba/F3-HLA-DQ8
T8 MHC II alpha: not shown
T8 MHC II beta: not shown

[17] = target: T9, HLA-DQ7.3 on Ba/F3 cells (human, UniProt P01909 24-216; P01920 33-230, limits assumed); assay: FACS, Ba/F3 cells; %MFI: IC17dK 0, DQN0139bb 100
T9 construct: whole, on cells; also called Ba/F3-HLA-DQ7.3
T9 MHC II alpha: not shown
T9 MHC II beta: not shown

B1: DQN0344H1013/L0620//DQN0385H1521/L0605-F6 (bispecific antibody)
heavy 1: QVQLVESGGGVVQPGRSLRLSCAASGFTFSSAYWMVWVRQAPGQGLEWMGAVYGGSDTTYYAKWTEGRFTISRDTSKNTLYLQMNSLRAEDTAVYYCAREPLNYYYYGELNVWGQGTLVTVSSASTKGPSVFPLAPSSKSTSGGTAALGCLVKDYFPEPVTVSWNSGALTSGVHTFPAVLKSSGLYSLSSVVTVPSSSLGTQTYICNVNHKPSNTKVDKRVEPKSCDKTHTCPPCPAPELRRGPSVFLFPPKPKDTLMISRTPEVTCVVVDVSHEDPEVKFNWYVDGVEVHNAKTKPREEQYNSTYRVVSVLTVLHQDWLNGKEYKCKVSNKALPAPIEKTISKAKGQPREPQVYTLPPSREEMTKNQVSLTCLVKGFYPSDIAVEWESNGQPENNYKTTPPYLDSDGSFFLYSKLTVDKSRWQEGNVFSCSVLHEALHAHYTREELSLSP
light 1: DIQMTQSPSSLSASVGDRVTITCQATENIYSGLAWYQQKPGKAPKLLIYYVSTLAYGIPARFSGSGSGTDFTLTISSLEPEDFAVYYCQTYEDVSAVTFGQGTKVEIKRTVAAPSVFIFPPSDEQLKSGTAEVVCLLNNFYPREAKVQWKVDNALQSGNSEESVTEQDSKDSTYSLSSTLTLSKADYEKHKVYACEVTHQGLSSPVTKSFNRGEC
heavy 2: QVQLVESGGGVVQPGRSLRLSCAASGFTFESWYFMSWVRQAPGKGLEWVASIDTGSGSIDYAEWVEGRFTISRDNSKNTLYLQMNSLRAEDTAVYYCARDIGIDYNFWGPGTLVTVSSASTKGPSVFPLAPSSKSTSGGTAALGCLVEDYFPEPVTVSWNSGALTSGVHTFPAVLESSGLYSLSSVVTVPSSSLGTKTYICNVNHKPSNTKVDKRVEPKSCDKTHTCPPCPAPELRRGPSVFLFPPKPKDTLMISRTPEVTCVVVDVSHEDPEVKFNWYVDGVEVHNAKTKPREEQYNSTYRVVSVLTVLHQDWLNGKEYKCKVSNKALPAPIEKTISKAKGQPREPQVYTLPPSRKEMTKNQVSLTCLVKGFYPSDIAVEWESNGQPENNYKTTPPYLDSDGSFFLYSKLTVDKSRWQQGNVFSCSVLHEALHAHYTRKELSLSP
light 2: DIQMTQSPSSLSASVGDRVTITCQTTQSISSYLNWYQQKPGQPPKLLIYYASTKAEGIPARFSGSGSGTDFTLTISSLEPEDFAVYYCHYGISKVSFGQGTKVEIKRTVAAPSVFIFPPSDEQLKSGTAKVVCLLNNFYPREAKVQWKVDNALQSGNSKESVTEQDSKDSTYSLSSTLTLSKADYEKHKVYACEVTHQGLSSPVTKSFNRGEC
IC50 (ng/mL), α1a gliadin TCR, 250 nM 33mer gliadin [1]: 0.28 ng/mL
IC50 (ng/mL), α1b gliadin TCR, 250 nM 33mer gliadin [1]: 1.76 ng/mL
IC50 (ng/mL), α2 gliadin TCR, 250 nM 33mer gliadin [1]: 0.33 ng/mL
IC50 (ng/mL), ω1 gliadin TCR, 25 µM ω1/2 gliadin [2]: 1.91 ng/mL
IC50 (ng/mL), BC hordein TCR, 250 nM BC hordein [3]: 8.98 ng/mL
IC50 (ng/mL), γ1 gliadin TCR, 250 nM γ1 gliadin [4]: 0.68 ng/mL
IC50 (ng/mL), γ2 gliadin TCR, 250 nM γ2 gliadin [5]: 853 ng/mL
IC50 (ng/mL), γ3 gliadin TCR, 100 µM γ3 gliadin [6]: 1.4 ng/mL
IC50 (ng/mL), γ4a gliadin TCR, 25 µM γ4a gliadin [7]: 1350 ng/mL
IC50 (ng/mL), γ4d gliadin TCR, 100 µM γ4d gliadin [8]: 13 ng/mL
binding result [9]: no binding (tested: 0.05 micro g/mL)
binding result [10]: no binding (tested: 0.05 micro g/mL)
binding result [11]: no binding (tested: 0.05 micro g/mL)
binding result [12]: no binding (tested: 0.05 micro g/mL)
binding result [13]: no binding (tested: 0.05 micro g/mL)
binding result [14]: no binding (tested: 0.05 micro g/mL)
binding result [15]: no binding (tested: 0.05 micro g/mL)
binding result [16]: no binding (tested: 0.05 micro g/mL)
binding result [17]: no binding (tested: 0.05 micro g/mL)
